{"source": "paper PMC5379950", "target": "microtubules (MTs) assembled with taxol in M-phase Xenopus egg extract (Xenopus laevis (endogenous in egg extract))", "assay": "co-sedimentation", "data": [{"substance": "GFP-xINCENP 7A (from UniProt O13024 1-873) (natural protein)", "values": [{"measurement": "fold increase in MT binding (against xINCENP)", "result": 2, "unit": "fold"}]}]}
